In US20060281073A1:

Target: αv integrins on NIH3T3 cells (αvβ3 and αvβ5) (mouse) (UniProt P43406)
Assay: cell-based or functional assay

Chain of UniProt P43406 (P43406 whole entry): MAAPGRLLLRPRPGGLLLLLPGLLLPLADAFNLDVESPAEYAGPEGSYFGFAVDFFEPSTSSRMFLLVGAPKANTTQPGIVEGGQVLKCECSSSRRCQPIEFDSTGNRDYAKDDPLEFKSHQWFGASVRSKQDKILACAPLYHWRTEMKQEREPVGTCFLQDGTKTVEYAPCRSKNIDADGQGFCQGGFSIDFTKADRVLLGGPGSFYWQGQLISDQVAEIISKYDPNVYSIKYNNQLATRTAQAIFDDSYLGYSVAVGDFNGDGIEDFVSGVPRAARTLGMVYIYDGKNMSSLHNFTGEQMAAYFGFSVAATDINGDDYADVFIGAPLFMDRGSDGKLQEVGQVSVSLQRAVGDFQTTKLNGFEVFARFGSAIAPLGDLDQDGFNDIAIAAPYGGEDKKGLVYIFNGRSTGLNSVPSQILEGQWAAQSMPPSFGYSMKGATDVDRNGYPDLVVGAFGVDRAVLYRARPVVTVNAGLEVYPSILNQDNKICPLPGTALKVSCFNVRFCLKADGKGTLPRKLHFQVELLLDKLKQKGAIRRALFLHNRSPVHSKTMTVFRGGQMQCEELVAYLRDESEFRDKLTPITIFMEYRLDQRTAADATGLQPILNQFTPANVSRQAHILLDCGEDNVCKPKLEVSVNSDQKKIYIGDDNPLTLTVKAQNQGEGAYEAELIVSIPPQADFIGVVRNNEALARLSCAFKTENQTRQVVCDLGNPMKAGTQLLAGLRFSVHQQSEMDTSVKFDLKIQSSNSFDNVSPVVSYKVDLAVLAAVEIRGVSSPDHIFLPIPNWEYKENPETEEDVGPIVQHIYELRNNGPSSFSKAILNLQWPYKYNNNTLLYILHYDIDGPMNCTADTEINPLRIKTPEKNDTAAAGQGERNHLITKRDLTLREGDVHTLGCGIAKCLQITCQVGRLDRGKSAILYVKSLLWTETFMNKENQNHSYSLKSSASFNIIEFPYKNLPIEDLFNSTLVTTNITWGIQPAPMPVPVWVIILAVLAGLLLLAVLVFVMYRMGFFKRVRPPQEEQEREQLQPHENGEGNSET

B1: RGD peptide (GRGDSP) (peptide)
peptide: GRGDSP
B1 was tested, and the reduction of transduction of Ad5luc-L1 in NIH3T3 cells compared to control RGE peptide was 40 % reduction, the reduction of transduction of Ad5luc-L16 in NIH3T3 cells compared to control RGE peptide was 60 % reduction and the reduction of transduction of Ad5luc-L33 in NIH3T3 cells compared to control RGE peptide was 61 % reduction.
